Here are results for five molecules from patent US10294487B2, “Methods and compositions involving ALS variants with native substrate preference” (E I DU PONT DE NEMOURS AND COMPANY, priority 2012, dated 2019).

In series [1] the test system is G. max ALS1 protein. Briefly: Colorimetric ALS kinetic assay (Km, kcat) with pyruvate as substrate. The class given is biochemical, Glycine max. A digest of the protocol: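 Recombinant soybean ALS variants, mature N-terminus from S48, His-MBP tag cleaved off; 0.8 ug enzyme per well in 25 mM potassium phosphate, 15 mM MgCl2, 0.7 mM TPP, 28 uM FAD, 0.2 mg/ml BSA, 0-100 mM pyruvate. Km and Vmax from hyperbolic fit; kcat from Vmax and protein concentration.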

In series [2] the test system is G. max ALS1 protein. Briefly: Substrate specificity ratio (Rf), pyruvate versus 2-ketobutyrate, LC-MS of reduced products. The class given is biochemical, Glycine max. Particulars: ratio of [pyruvate] to [2-ketobutyrate] giving equal rates of acetolactate and acetohydroxybutyrate formation; 25 mM pyruvate. In a few lines: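 Pyruvate was held at 25 mM while 2-ketobutyrate was varied. Reactions were quenched with sodium borohydride, and the reduced acetolactate and acetohydroxybutyrate were separated on C18 with a methanol gradient and quantified by MS integration. Rf is the [pyruvate]/[2-ketobutyrate] ratio that gives equal formation rates of both products.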

B1: GM-ALS_P178S_A186V: Glycine Max ALS1 with P→S at position 178 and A→V at position 186 (protein)
chain: MAATASRTTRFSSSSSHPTFPKRITRSTLPLSHQTLTKPNHALKIKCSISKPPTAAPFTKEAPTTEPFVSRFASGEPRKGADILVEALERQGVTTVFAYPGGASMEIHQALTRSAAIRNVLPRHEQGGVFAAEGYARSSGLPGVCIATSGPGATNLVSGLADALMDSVPVVAITGQVSRRMIGTDVFQETPIVEVSRSITKHNYLILDVDDIPRVVAEAFFVATSGRPGPVLIDIPKDVQQQLAVPNWDEPVNLPGYLARLPRPPAEAQLEHIVRLIMEAQKPVLYVGGGSLNSSAELRRFVELTGIPVASTLMGLGTFPIGDEYSLQMLGMHGTVYANYAVDNSDLLLAFGVRFDDRVTGKLEAFASRAKIVHIDIDSAEIGKNKQAHVSVCADLKLALKGINMILEEKGVEGKFDLGGWREEINVQKHKFPLGYKTFQDAISPQHAIEVLDELTNGDAIVSTGVGQHQMWAAQFYKYKRPRQWLTSGGLGAMGFGLPAAIGAAVANPGAVVVDIDGDGSFIMNVQELATIRVENLPVKILLLNNQHLGMVVQWEDRFYKSNRAHTYLGDPSSESEIFPNMLKFADACGIPAARVTKKEELRAAIQRMLDTPGPYLLDVIVPHQEHVLPMIPSNGSFKDVITEGDGRTRY
modifications: ALS1 variant P178S A186V
As usually defined, the Km is the substrate concentration at which the rate is half of its maximum. Broadly, the kcat is the maximal rate divided by the concentration of active sites. Regarding B1, in the series on G. max ALS1 protein [1], the Michaelis constant (Km) was 21 mM and the kcat is 0.45 s⁻¹. For the same molecule, the “Substrate specificity ratio (Rf)” value in the series on G. max ALS1 protein [2] is 29.0.

B2: GM-ALS_P178S_D357N: Glycine Max ALS1 with P→S at position 178 and D→N at position 357 (protein)
chain: MAATASRTTRFSSSSSHPTFPKRITRSTLPLSHQTLTKPNHALKIKCSISKPPTAAPFTKEAPTTEPFVSRFASGEPRKGADILVEALERQGVTTVFAYPGGASMEIHQALTRSAAIRNVLPRHEQGGVFAAEGYARSSGLPGVCIATSGPGATNLVSGLADALMDSVPVVAITGQVSRRMIGTDAFQETPIVEVSRSITKHNYLILDVDDIPRVVAEAFFVATSGRPGPVLIDIPKDVQQQLAVPNWDEPVNLPGYLARLPRPPAEAQLEHIVRLIMEAQKPVLYVGGGSLNSSAELRRFVELTGIPVASTLMGLGTFPIGDEYSLQMLGMHGTVYANYAVDNSDLLLAFGVRFDNRVTGKLEAFASRAKIVHIDIDSAEIGKNKQAHVSVCADLKLALKGINMILEEKGVEGKFDLGGWREEINVQKHKFPLGYKTFQDAISPQHAIEVLDELTNGDAIVSTGVGQHQMWAAQFYKYKRPRQWLTSGGLGAMGFGLPAAIGAAVANPGAVVVDIDGDGSFIMNVQELATIRVENLPVKILLLNNQHLGMVVQWEDRFYKSNRAHTYLGDPSSESEIFPNMLKFADACGIPAARVTKKEELRAAIQRMLDTPGPYLLDVIVPHQEHVLPMIPSNGSFKDVITEGDGRTRY
modifications: ALS1 variant P178S D357N
On to B2, for which, in the series with G. max ALS1 protein [1], the Km is 4 mM and the turnover number (kcat) stood at 1.82 s⁻¹. The “Substrate specificity ratio (Rf)” value with G. max ALS1 protein [2] is given as 49.0.

B3: GM-ALS_P178S_F559D: Glycine Max ALS1 with P→S at position 178 and F→D at position 559 (protein)
chain: MAATASRTTRFSSSSSHPTFPKRITRSTLPLSHQTLTKPNHALKIKCSISKPPTAAPFTKEAPTTEPFVSRFASGEPRKGADILVEALERQGVTTVFAYPGGASMEIHQALTRSAAIRNVLPRHEQGGVFAAEGYARSSGLPGVCIATSGPGATNLVSGLADALMDSVPVVAITGQVSRRMIGTDAFQETPIVEVSRSITKHNYLILDVDDIPRVVAEAFFVATSGRPGPVLIDIPKDVQQQLAVPNWDEPVNLPGYLARLPRPPAEAQLEHIVRLIMEAQKPVLYVGGGSLNSSAELRRFVELTGIPVASTLMGLGTFPIGDEYSLQMLGMHGTVYANYAVDNSDLLLAFGVRFDDRVTGKLEAFASRAKIVHIDIDSAEIGKNKQAHVSVCADLKLALKGINMILEEKGVEGKFDLGGWREEINVQKHKFPLGYKTFQDAISPQHAIEVLDELTNGDAIVSTGVGQHQMWAAQFYKYKRPRQWLTSGGLGAMGFGLPAAIGAAVANPGAVVVDIDGDGSFIMNVQELATIRVENLPVKILLLNNQHLGMVVQWEDRDYKSNRAHTYLGDPSSESEIFPNMLKFADACGIPAARVTKKEELRAAIQRMLDTPGPYLLDVIVPHQEHVLPMIPSNGSFKDVITEGDGRTRY
modifications: ALS1 variant P178S F559D
As for B3, in the series with G. max ALS1 protein [1], the Km is 40 mM and the kcat came to 0.833 s⁻¹. Besides, the “Substrate specificity ratio (Rf)” value with G. max ALS1 protein [2] amounted to 89.0.

B4: GM-ALS_A186V: Glycine Max ALS1 variant with a A→V mutation at position 186 (protein)
chain: MAATASRTTRFSSSSSHPTFPKRITRSTLPLSHQTLTKPNHALKIKCSISKPPTAAPFTKEAPTTEPFVSRFASGEPRKGADILVEALERQGVTTVFAYPGGASMEIHQALTRSAAIRNVLPRHEQGGVFAAEGYARSSGLPGVCIATSGPGATNLVSGLADALMDSVPVVAITGQVPRRMIGTDVFQETPIVEVSRSITKHNYLILDVDDIPRVVAEAFFVATSGRPGPVLIDIPKDVQQQLAVPNWDEPVNLPGYLARLPRPPAEAQLEHIVRLIMEAQKPVLYVGGGSLNSSAELRRFVELTGIPVASTLMGLGTFPIGDEYSLQMLGMHGTVYANYAVDNSDLLLAFGVRFDDRVTGKLEAFASRAKIVHIDIDSAEIGKNKQAHVSVCADLKLALKGINMILEEKGVEGKFDLGGWREEINVQKHKFPLGYKTFQDAISPQHAIEVLDELTNGDAIVSTGVGQHQMWAAQFYKYKRPRQWLTSGGLGAMGFGLPAAIGAAVANPGAVVVDIDGDGSFIMNVQELATIRVENLPVKILLLNNQHLGMVVQWEDRFYKSNRAHTYLGDPSSESEIFPNMLKFADACGIPAARVTKKEELRAAIQRMLDTPGPYLLDVIVPHQEHVLPMIPSNGSFKDVITEGDGRTRY
modifications: ALS1 variant A186V
Take B4: in the series on G. max ALS1 protein [1], the Km came to 14 mM and the kcat came to 0.467 s⁻¹. Also, the “Substrate specificity ratio (Rf)” value in the series on G. max ALS1 protein [2] is 40.3.

B5: GM-ALS_A186D: Glycine Max ALS1 variant with a A→D mutation at position 186 (protein)
chain: MAATASRTTRFSSSSSHPTFPKRITRSTLPLSHQTLTKPNHALKIKCSISKPPTAAPFTKEAPTTEPFVSRFASGEPRKGADILVEALERQGVTTVFAYPGGASMEIHQALTRSAAIRNVLPRHEQGGVFAAEGYARSSGLPGVCIATSGPGATNLVSGLADALMDSVPVVAITGQVPRRMIGTDDFQETPIVEVSRSITKHNYLILDVDDIPRVVAEAFFVATSGRPGPVLIDIPKDVQQQLAVPNWDEPVNLPGYLARLPRPPAEAQLEHIVRLIMEAQKPVLYVGGGSLNSSAELRRFVELTGIPVASTLMGLGTFPIGDEYSLQMLGMHGTVYANYAVDNSDLLLAFGVRFDDRVTGKLEAFASRAKIVHIDIDSAEIGKNKQAHVSVCADLKLALKGINMILEEKGVEGKFDLGGWREEINVQKHKFPLGYKTFQDAISPQHAIEVLDELTNGDAIVSTGVGQHQMWAAQFYKYKRPRQWLTSGGLGAMGFGLPAAIGAAVANPGAVVVDIDGDGSFIMNVQELATIRVENLPVKILLLNNQHLGMVVQWEDRFYKSNRAHTYLGDPSSESEIFPNMLKFADACGIPAARVTKKEELRAAIQRMLDTPGPYLLDVIVPHQEHVLPMIPSNGSFKDVITEGDGRTRY
modifications: ALS1 variant A186D
As for B5, in the series on G. max ALS1 protein [1], the Km amounted to 35 mM and the turnover number (kcat) turned out to be 0.15 s⁻¹. Besides, the “Substrate specificity ratio (Rf)” value in the series on G. max ALS1 protein [2] came out at 21.7.
